The record followed here is US11912782B2, “BCMA monoclonal antibody-drug conjugate” (MedImmune, LLC, priority 2017, dated 2024).

For experiment [1], the system named is Jurkat. Nature of the experiment: In vitro cytotoxicity, CELLTITER-GLO, 96 hours (BCMA-negative line). As to conditions: T-lymphocyte, BCMA receptor number 0. The class given is cell-based. The protocol: (§1) Killing of multiple myeloma and plasma cell leukemia cell lines by antibody-drug conjugates comprising 15B2GL, or affinity-optimized clones thereof, conjugated to SG3249 was evaluated in vitro using the protocol recommended in the CELLTITER-GLO® kit (Promega, Madison, Wis.). Killing of multiple myeloma and plasma cell leukemia cell lines by the free warhead SG3199 also was evaluated using the protocol recommended in the CELLTITER-GLO® kit (Promega, Madison, Wis.). Briefly, 5×10^3 cells in 80 μL RPMI+10% FBS were added to the inner wells of white-walled 96-well plates (Corning® Costar®, Fisher Scientific, Waltham, Mass.). The following BCMA-expressing cell lines were tested: NCI-H929, EJM, MM.1R. JJN3, OPM-2, MM.1S, U266.B1, and L363. BMCA-negative cell lines Raji and Jurkat also were tested. The antibody-drug conjugates were diluted to a 5× stock (2.5 μg/mL) in RPMI+10% FBS. Treatments were then serially diluted 1:3 in RPMI+10% FBS. […] Luminescence was measured using an EnVision™ Multilabel plate reader (Perkin Elmer, Waltham, Mass.). Data were analyzed and graphed using GraphPad Prism™ software (GraphPad Software, Inc., La Jolla, Calif.), and the half-maximal inhibitory concentration (IC50) was determined.
(ATP-based viability assays read luminescence as a measure of living cells.)

Experiment [2] concerns Raji. The experiment is described as above. The class given is cell-based. As to conditions: Burkitt's lymphoma, BCMA receptor number 0. The procedure:
as §1

For experiment [3], the system named is MM.1S cells. Nature of the experiment: Cell killing in the presence of soluble BCMA (conditioned media from Ad293 cells expressing human BCMA). The note with it: MM.1S and NCI-H929, sBCMA at levels up to 720 ng/mL. The class given is cell-based. The procedure:
Killing of multiple myeloma and plasma cell leukemia cell lines by antibody-drug conjugates comprising 15B2GL, or affinity-optimized clones thereof, conjugated to SG3249 was evaluated in vitro using the protocol recommended in the CELLTITER-GLO® kit (Promega, Madison, Wis.). Killing of multiple myeloma and plasma cell leukemia cell lines by the free warhead SG3199 also was evaluated using the protocol recommended in the CELLTITER-GLO® kit (Promega, Madison, Wis.). Briefly, 5×10^3 cells in 80 μL RPMI+10% FBS were added to the inner wells of white-walled 96-well plates (Corning® Costar®, Fisher Scientific, Waltham, Mass.). The following BCMA-expressing cell lines were tested: NCI-H929, EJM, MM.1R. JJN3, OPM-2, MM.1S, U266.B1, and L363. BMCA-negative cell lines Raji and Jurkat also were tested. The antibody-drug conjugates were diluted to a 5× stock (2.5 μg/mL) in RPMI+10% FBS. Treatments were then serially diluted 1:3 in RPMI+10% FBS. 20 μL of this series was added to the cells in duplicate, resulting in a 12-point dose curve of antibody-drug conjugate ranging from 0.5 μg/mL at the highest concentration to 3×10^−[…] at the lowest. Isotype antibody-drug conjugate (IgG1-SG3249 and IgG1-mc-MMAF) and media-only controls also were included. Plates were incubated at 37° C., 5% CO2 for 96 hours. At the end of the incubation period, 100 μL of the Substrate Solution (Promega, Madison Wis.) was added to each well. Luminescence was measured using an EnVision™ Multilabel plate reader (Perkin Elmer, Waltham, Mass.). Data were analyzed and graphed using GraphPad Prism™ software (GraphPad Software, Inc., La Jolla, Calif.), and the half-maximal inhibitory concentration (IC50) was determined.
The ability of the 15B2GL-SG3249 ADC to kill multiple myeloma cells in vitro in the presence of soluble BCMA (sBCMA) as compared to the I09-5G3249 ADC was evaluated in MM.1S cells using the protocol described above, except that tested cell lines also were treated with BCMA-containing conditioned media collected from Ad293 cells expressing human BCMA (FIGS. 3A and 3B). 15B2GL-SG3249 ADC cell killing in the presence of sBCMA also was compared to ADCs comprising the anti-BCMA antibody J6M0, which is described in U.S. Pat. No. 9,273,141.

Experiment [4] has as its system NCI-H929 xenograft. Nature of the experiment: NCI-H929 subcutaneous xenograft model (Example 5). Format: in vivo, mouse. As to conditions: single intravenous dose 0.3 mg/kg, observed for 99 days post tumor implantation. An excerpt:
(§2) Subcutaneous xenograft mouse models of multiple myeloma and plasma cell leukemia were generated by implanting BCMA-expressing multiple myeloma or plasma cell leukemia cell lines (i.e., NCI-H929, JJN-3, MM.1S, and MM.1R) into female CB-17 SCID (C.B-17/IcrHsd-Prkdc-scid) or athymic nude (Foxn1^nu) mice using MATRIGEL™ (BD Biosciences, San Jose, Calif.). Once tumors reached approximately 180 mm^3 (NCI-H929 cells), 190 mm^3 (JJN3 cells), 160 mm^3 (MM.1S cells), or 175 mm^3 (MM.1R cells), mice were randomized based on tumor size and placed into dosing groups and treated with BCMA-targeting ADCs as described below.
Mice were treated with either a single intravenous dose of the ADCs 15B2GL-SG3249, I09-5G3249, L15-SG3249 at 0.3 mg/kg or dosed intravenously with J6M0-mc-MMAF weekly at a dose of 0.3 mg/kg for 2 weeks. Control mice were left untreated.

For experiment [5], the system named is JJN3 xenograft. Kind of experiment: JJN3 subcutaneous xenograft model. As to conditions: single intravenous dose 1 mg/kg, observed for 104 days post tumor implantation. Format: in vivo, mouse.
From the text: as §2
Mice were treated with either a single intravenous dose of 15B2GL-SG3249, 109-SG3249, and L15-SG3249 ADCs at 1 mg/kg, or dosed intravenously with J6M0-mc-MMAF ADC weekly at a dose of 1 mg/kg for 3 weeks. Control mice were left untreated.

In experiment [6] the test system is MM.1S xenograft. Nature of the experiment: MM.1S subcutaneous xenograft model (Example 5). The class given is in vivo, mouse. The note with it: single intravenous dose 1 mg/kg, observed for 99 days post tumor implantation.
From the text: as §2
Mice were treated with either a single intravenous dose of 15B2GL-SG3249, 109-SG3249, L15-SG3249 ADCs at 1 mg/kg or dosed intravenously with J6M0-mc-MMAF twice weekly at a dose of 1 mg/kg for 4 weeks. Control mice were left untreated.

Experiment [7] concerns MM.1R xenograft. Kind of experiment: MM.1R subcutaneous xenograft model. The note with it: single intravenous dose 1 mg/kg, observed for 109 days post tumor implantation. Format: in vivo, mouse.
From the text: as §2
Mice were treated with either a single intravenous dose of 15B2GL-SG3249 at 1 mg/kg or dosed intravenously with J6M0-mc-MMAF weekly at a dose of 3 mg/kg for 4 weeks. Control mice were left untreated.

Experiment [8] deals with MM stem cells (clonogenic cells in MM bone marrow biopsies). Nature of the experiment: Clonogenic (colony formation) assay on MM patient bone marrow samples. Format: cell-based, human. The protocol:
In particular, cells were counted using a ViCELL™ counter (Beckmann-Coulter Life Sciences, Indianapolis, Ind.) and resuspended in IMDM+2% FBS at 10-fold higher density than required for plating. METHOCULT™ H4434 Classic (StemCell Technologies, Inc., Vancouver, BC, Canada) was mixed with 2000 cells per mL for MM263, MM284, and MM276, and 4000 cells per mL for MM277 following the manufacturer's instructions. 25-400 ng per mL of the test ADCs 15B2GL-SG3249 and J6M0-mc-MMAF was then added to appropriate tubes. A control IgG1-SG3249 antibody was added at only the high dose of 400 ng per mL. All tubes were vortexed thoroughly to mix and then allowed to sit undisturbed, allowing air bubbles to rise to the top. Once the bubbles had risen, 400 μL was removed with a 16-guage blunt end needle and carefully plated into one well of a 24-well ultralow attachment plate (VWR, Radnor, Pa.). Each treatment was plated in duplicate in the inner wells of the plate. PBS was added to the outer wells and the plate was incubated at 37° C. for 7-10 days. Colonies were counted by eye with documentation of colony formation by scanning plates on a Celigo® Image Cytometer (Nexcelom Biosciences, Lawrence, Mass.).

B1: 15B2GL-SG3249: ADC: 15B2GL monoclonal antibody site-specifically conjugated to the PBD payload SG3249 (conjugate)
VH: EVQLVESGGGLVKPGGSLRLSCAASGFTFRSYSMNWVRQAPGKGLEWVSSISGSSNYIYYADSVKGRFTISRDNAKNSLYLQMNSLRAEDTAVYYCARGGNYYVEYFQYWGQGTLVTVSS
VL: EIVLTQSPGTLSLSPGERATLSCRASQYISSNYLAWYQQKPGQAPRLLIYGASNRATGIPDRFSGSGSGTDFTLTISRLEPEDFAVYYCQQYGSSPITFGQGTKLEIK
As a reminder, the IC50 is the midpoint of a concentration-inhibition curve. Read a low IC50 as higher potency. With B1, the IC50 in experiment [1] and in experiment [2] was over 0.5 µg/mL throughout. Further, the “tumor cells killed (average)” value in experiment [3] was 95%. Also, the tumor regrowth result in experiment [4], in experiment [5], in experiment [6] and in experiment [7] was “no evidence of tumor regrowth” in each case. For the same molecule, the “colonies killed / reduction in colony formation” value in experiment [8] (patient sample MM263, 400 ng/mL) was found to be 100%; in experiment [8] (patient sample MM276, 400 ng/mL), 87.5%; in experiment [8] (patient sample MM277, 400 ng/mL), 91%; in experiment [8] (patient sample MM284, 400 ng/mL), 100%.
